A protein production outcome set (Wang et al. 2014)

Assay: label from the status in PepcDB records

| Sequence | protein production |
| --- | --- |
| MSARSGFWYACSPPSAPGWCRFFDLLTCCTDEDGLMRDVALCCRSIAIDVRGLLRIDTQEGSAEKLRPSQTDVFNALASFLVAVGSQPYCNLASHPRHLDALAIPDTRYPIPDTQPMTFREPVDLVALNAASRDTLIEHLGIVFTEAGDDWLRATMPVDARTRQPYGLLHGGASVVLAETLGSSAGNLCVDMTTRMCVGLEINANHLRAATQGLVTGTARAVHVGRSTHVWDITIENPVGKRVCVSRLTLAVVARGNG | failed |
| MAHIFVYGTLKRGQPNHKVMLDHSHGLAAFRGRGCTVESFPLVIAGEHNIPWLLYLPGKGHCVTGEIYEVDEQMLRFLDDFEDCPSMYQRTALQVQVLEWEGDGDPGDSVQCFVYTTATYAPEWLFLPYHESYDSEGPHGLRYNPRENR | not failed |
| MGKEAVTGKVRKLTVQLDHQTGDLKGCSRRGPTPRSRAPGAKLSAPEAGPPRRGPLPRGGAGRDTLLGAKATPSSPAARRYVTALGPPQPRGSTDSACAALPQPVPHEPREAAFRLAPASERGASVSPARIPRRRRRVPAMWDPRAARTPPRELAMLLCNKSNAFYNLGKWNEAFLAAKECLQWDPTYVKGYYRAGYSLLHLLQPYEAARMFFEGLRLLQRSPDQLQVPDFLVGIFTTMSSDSIVLQSFLPCFDHIFTTGFSTEVWQYVIQKLAKKGLWHQSFLLLSAKKDRLPSNIHVSELSLQSLFEKYVFIGFYEKLEQVPKLVQWLVSIGANIETIGPNPLHALMRLCIQARESQLFRWVMDQKPEWKEHINHRDDAGCTVLHVAAAHFPGYTSRRQTEDVQMLLSFGADPTLLDGHARTVVDVLKRNKNFRAIDKINSHLEKLASSSKGLSALQEAFISKQ | failed |
| KNKKVILFAPTFRGNGHRTAHYPFFKINFARLASYCEEHQATVLFKMHPFVRNKLNIPAIYSKYFLDISNYREVNDVLFITDILISDYSSLIYEFSVFKKPMLFYAFDLEDYIYTRDFYEPYETFVPGKIVKIFDELILALENNDFELEKVKPFLNKNFKYKDGKSSERLVKDLFNKFFQ | failed |
| MAMGRTTQFTLDEVAKHADKDSCWLVIDGKVYAVEKFLNEHPGGEDVLLETAGRDATREFEDVGHSKSAREQLKEFYIGDVREPTAEELAAKRAVQASAAAERRDGDGVRANGLGKERLFAGGAFGAEPLSGGSSTWTLLKRLFVPVCIAVLVYLVREYSKQVQTGG | not failed |
| LNIAQKGREGRKIGTAFVMGDVEEVMSRSSQLVINPYHGHKEADRDIKNPENWESVMEFAQIDGVFVLDENGIIIACGRYIEASAKDLVSKIKRGLGGRHIACASITKETKAIAVVVSESGGDITVYKDGVEVMHIPSLLF | failed |
| MWAFLVEQPNLPYTIAFACVLVLGVFEALALLIGLSMMSALDQWVPADVEYDADIGGSGLTGIAGWLCLNRLPLLIWFVLALTSFAIAGYLVNYISLMVSATLLPQLFTLPIAVVGSALSCRYLGRMLADLLPKNESTAISLDDLSGYVGTITLGCAIKGMPSEAVVRDKHQQKHYVLVEPETSGIEFASGTQVVLLKREGRVWSATRFDN | failed |
| MSDTLRPYKNLFPGIGQRVMIDTSSVVIGDVRLADDVGIWPLVVIRGDVNYVAIGARTNIQDGSVLHVTHKSSSNPHGNPLIIGEDVTVGHKVMLHGCTIGNRVLVGMGSIVLDGAIIEDDVMIGAGSLVPQHKRLESGYLYLGSPVKQIRPLSDAERSGLQYSANNYVKWKDDYLSQDNHIQP | not failed |
| MNELFDAKESLSPAEREDSLFQRLPTLIENAKANSEHYGNIFSGIDASIASNREGLAQFPITRKFNVPSQQQLKPPFGGLNSVAIGQMARVFQSPGPLYEAQTDESDFWRMGRAFHAAGFRRGDLVHNTLSYHFSPGGFIMDGGARACGCAVFPAGVGNTEAQIEAIKQLQPTGYTGTPSYLLTLLQKYQEQYGELPSFTKALVSGEAVTADMQQAFTDKGIAVFQAYASAELGLIAYQVAGEQGLVIGEDIIVEIVDPDGMPVPPGEVGEVVVTSLDEKFPLIRYATGDLSAYIENDANSPYTNMRIKGWMGRADSAVKVKGLFVYPHQIQEVCRRHEITGSLKIERDGFNDTITFCCHDVHVSAEDIQATLQSVTKLKGNVQFVANDADQPLINDLRS | failed |
| MDIVLIGGLWLNGSVWEGVASTLESLGHRPVPLTLPGQGDGAATATLDDQVAAVLAAVDAAPGRPMVVGHSAACALAWLAADRRPGRLAKVALIGGIPTPDGRPYADFFEVRDGVMPFPGWEPFQGPDAADLDEAARHELAAAAIPVPEAVARGVVRLSDERRYDVPVVVVCPEFTPAQARGWIDAGDVPELARAKHVDFADIDSGHWPMITKPAELARVLAAAAEGN | failed |
| MSLAPCGLVPSARQLEWYNREMIAFFHFGINTFEEYVNEGDGKASTAIFNPTALDCRQWMQTLKAAGIPAAILTAKHADGFCLWPSKYTDYSVKNAAWKNGKGDVVREFVDACEEYGLKAGIYLGPHDRHEHLSPLYTTERYKEYYAHQLGELMSDYGKIWETWWDGAGADELTTPVYRHWYKIVREKQPDCVIFGTKNSYPFADVRWMGNEAGEAGDPCWATTDSVAIRDEAQYYKGLNEGMLDGDAYIPAETDVSIRPSWFYHAEEDSRVKSVRELWDIYCTSVGRNSVLLLNFPPDRRGLIHSTDSLHAALLKQGIDETFSTNLLRGAKVKATNVRGAKYSPEKMLDNEKNTYFAGKDGEVKADIIFTLPKTIEFDCLMIEEVIELGHRTTKWSVEYTVDGKNWITIPEATDKQAIGHKWIVRLAPVKAKQVRLRIQDGKACPAIHTFGVYKQSPVFKEGHHHHHH | not failed |
| MLLTLPAPLRRALWAQVRRELPRECVGALGGWVRGEQVQAHALYPLPNVAADPEREYLADPGDLLRVVRAMQREGLDLVALYHSHPHGPAAPSASDRRLAAYPVPYLIADPAAEVLRAYLLPGGEEVEVRSADESNLEHHHHHH | failed |
| EQYGDLPPRVFECRLAMVQPSSVVSGNNRWSTAANDMLKTVAQCGLIDIEVYSLFNNVAAVLIHMRDGIINDKLVELMLCRRSDEDYMSRKDHDFRLRRQ | failed |
| MKTGKELKPGTVLRIDNDPWLVQKAEFTKSGRNSAIMKTKLKNLLTGYKTETVYGADDKLDDVILDRKEATLSFINGDEYTFMDTTDYTMYELNAEDIEAVLPYIEEGMEDVCEAVFFEGRLVSVELPTTISRKVVYTENAARGDTSGKVMKPAKLANGTEISVADFIQIDEWIDIDTRDNSFKGRSKKLEHHHHHH | not failed |
| QTVAQGKLTLSVPKAVGRFVIHPLMMAFFHRYPQVDVCLRLEDRPLDFIDDGIDLALRITDTPSPGLHGKPLMPIRHVICATEAYLQQHGTPYTPQDLRSHSCISLGETPADARWKFRREGKTETVQTYGRYAANHTAVR | failed |
| MTWTNVLAMLVWTGASAVLLFAIMWVDSIFTKYNDLKEIKNGNTAVTTRFVMKLFAQGYILSQSITKANDLWQALLASAVSFVILLVVEMFIEFVLKKMAGLDLEEGTKEGSVAHAMLAGSLHIVGALILGACL | failed |
| MLDDLDLFVAIVDAGSLSAAAKRMAMPAATLTRRLQALEAELGCKLLNRSARRLVPTNEGWQYYEQCKPLLAALRQAADSLDATLNRVEGVVRAMAPVSMANSLLLPVWQRLLQRHPAVRLELVLSNGTEDVWAMGGDLAIRVGPQPDSQLNQRKLGQVSAVLAAAPSYLEARGRPQAFEQLAGHDLLLTTPLQNWKLHRVDGDEERSLPDGARLLVNDMLLGVRMAEAGCGVVLCPLSQCHRELADGRLERILQDWWIPPRPVYAVWPQRRAMPARVRALLDILLEFAAEEPLLRS | failed |
| MMLTMGMLERYVLKRTMGALVGALAVLSAMVMLIAFVDIARNVGTRADASFLRLLYLTILQAPATILVLAPFIFLFGTMWAFVELNRRSELIAMRAAGISAWRFIMPAAASSFVIGLLTITLLNPLTTAMTAKFETERDRTMNGYLKEAPKGTWLRQGDDKTQIVIRARARELVDGSVRLRGVSLFVYTLNAKGVMDFTRRIEANEARLEPGFWRLSGVREATPGAGAIRSDSLSIPSNLDDRTASERFNTPQAVALWRLPATIQRTADAGFSAVPFKLRLQQDLATPLLFAAMSVLAAAFSLRLMRLGGLAMLAGSGVALGFGFFFFNELCSTLGRADVLAPFVAAWTPPTVALLVGFTLLCYTEDG | failed |
| MKKKYTIFAISMAVALVLGGEVQSINDSVEAQELQHTVKNVKQTEDFNPTKYANEIENFVKQQNPVSIKSLFSTIALKEKADFEKYGEANAAQVKMLWGSYVFFDFGFVKDSKIIEAIKNNPSVYAKFKKTVNINGTGAFLPGTGSPESISIKNNEDGSNIDSYAYYTPHNPDITKNADKTVVMHGGFRGGYEAGNDTPEIRTFYDKGYNILCVDNRATSLSGGDYVTFGQYESDDVQAWINHYLKDKPDQKIVLYGGSMGASTMMSVLAKNYSSNIKGIIENCGFANIRNELGYVYTMAAIGKNELKDLTGTDFAEDFSVTPMNLQKMMETINNYYIKPKANVDIDGNLPAQGITNAIMPKLFIHGESDLVVPFKDNGQYLATLGDTNNNYKFFVPKAGHGEAQTIDGNGYDKAISDYLNLIFK | failed |
| MKIMTKALNRTTLGLALGLASSQLLAAGFALNEQSISGMGTGFAGRSSSADDASTVFGNPAGMSRIKREQISVGAAAVIAKTDIDNGRGTFGGSNDGDMVPVVGVPMGYYVKPIDDHWAFGLGVYVPFGLVTDYEKGFAGRYWGDKSHVQIVTFQPTVSYAFNDKVSIGFGPTINRIDGELTSAVPNRASLGTNDGKVKIKGDDTAIGFNAGILVQATDTTRLGLTYHSKVDYKLEGKTKVEGSGFGPFGGQKYDASLDISTPESVDFSITQQLDENWTVYAGSTWTRWSRLKDITVENSGVPTALASSIGTITEEQDWHDTWAHAIGASYKVNKEWTLRTGFSVDQSPTNNVNRSPRIPTGDRKIISFGAGWSPTDDLTIDVAYSYLREDETKIRDSSATKGSYSADYRNTAHGLGTSVTYRF | failed |
| MLIPHDLLEADTLNNLLEDFVTREGTDNGDETPLDVRVERARHALRRGEAVILFDPESQQCQLMLRSEVPAELLRD | not failed |
| MGSTFFGRPNVVGSSPPSSSPTSSSSSPATRRGKKNGSEKPKQPQRGLGVAQLEKIRLHGEMSCNSFNSYNPSLYPQVTYTNTSLHNRDSDPKASKLIKTRYICV | failed |
| MAAGSLLTLLDDIATLLDDVALATKKTAGVLGDDLALNAQQVTGVSADRELPVVWAVAKGSLLNKAILVPAALLISAFAPWAILPLLMIGGAFLCFEGFEKIAHKWLHPEAGEEHDQRKQAATDASVDMVAFEKERIKGAIRTDFILSAEIIVLALGVVSARPFMDQVGVLVIVAVLITVGVYGLVAGIVKLDDLGLHLKRTASSVAQTIGSALLWLAPVLMKVLSIVGTAAMFMVGGGILVHGLPFAHHWADGVTEAASAAVGGLSMIVPTLIDAIAGIIAGAVLVLIVTLVGKVWKAARE | not failed |
| MNNLSWSDIKRSTFNAIKKGDLKLLANMIDKYPKVIDAYNSSGYSLLHVAAEQDNVEVLEYLYNNKIDVNITRKNDDGCVTPIHGAVDKNLIGNVEWLIAHGAKIDTGNGIHATPLIGAAFNGNLEMVKLLLKNGADINAFYDIGEGINKTRITPLIAAEMEGHTETCEYLCKNGARKLDAKKYELTQIKNQHDEILQYLQRYFGNVNKTLSEVIPASNVSVNLNIMRNTENDKFITIVTTGMSDCPMDDSDEAFEERFAELIIKLPKDWLIDKNNIKDVNNYWPLGWIRRIAHIPHLYDGWIGKDIIIPNGEPPQPFAPNTKLSCIMICQPDEKELHRFTTSKGNIINLYTLIPIYKEERNMALIKGCKYLRKRMEDRGIDEILNITRENVGLSADEQ | failed |
| TALIASGLVPQPFYFYGFLPRKKNEQKADLAKLARRHETVVLYESPFRVAKTLTLLATVCEGTRPIVACRELTKRYEEFARGTLAEMVTWAQDHQLKGEFVLLIGGNPDK | failed |
| MDHLLSGLATRLGQGPFVADRTGSYHLRIDGQSVLLLRQGDDLLLESPLEHAPLDPQRDQQGLLRALLSRVASWSRRYPQAIVLDADGRLLLQARLGLDGLDPERLERALAAQVGLLEALAPELEPLPRGLPPQAPVWRP | failed |
